The supplement of paper PMC7125110
± gives the standard error. For some of these results: Fewer inactive variants are shown than the library holds.

B1: glmS ribozyme (parent)
chain: AUAAAAGCGCCAGAACUACAGAAAUGUAGUUGACGAGGAGGAGGUUUAUCGAAUUUUCGGCGGAUGCCUCCAAA

What was measured:
Conditions in all cases: with glucosamine-6-phosphate
glucosamine-6-phosphate [1] = variants of: B1; experiment: kcat; higher = faster cleavage; RNA array
Summary of the method: (§1)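 Glucosamine-6-phosphate, from 40 μM to 10 mM in HEPES/KCl/Mg(OAc)2 buffer, was flowed over sequenced MiSeq chips carrying barcoded ribozyme variants transcribed in situ by E. coli RNA polymerase. A hybridised Cy3 probe tracked the variants at 37 °C as tiles were imaged over ~14 h. kobs, kcat and KM were obtained by fitting normalised per-tile medians to exponential decays and then applying weighted Michaelis–Menten fits across concentrations.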

glucosamine-6-phosphate [2] = variants of: B1; experiment: KM; higher = weaker cofactor use; RNA array
Summary of the method: as §1

glucosamine-6-phosphate [3] = variants of: B1; experiment: self-cleavage kobs at 160 uM GlcN6P; higher = faster cleavage; RNA array
Summary of the method: as §1

glucosamine-6-phosphate [4] = variants of: B1; experiment: self-cleavage kobs at 640 uM GlcN6P; higher = faster cleavage; RNA array
Summary of the method: as §1

glucosamine-6-phosphate [5] = variants of: B1; experiment: self-cleavage kobs at 2500 uM GlcN6P; higher = faster cleavage; RNA array
Summary of the method: as §1

glucosamine-6-phosphate [6] = variants of: B1; experiment: self-cleavage kobs at 10000 uM GlcN6P; higher = faster cleavage; RNA array
Summary of the method: as §1

glucosamine-6-phosphate [7] = variants of: B1; experiment: self-cleavage kobs at 40 uM GlcN6P; higher = faster cleavage; RNA array
Summary of the method: as §1

| Variant | kcat (glucosamine-6-phosphate [1]) | KM (glucosamine-6-phosphate [2]) | self-cleavage kobs at 160 uM GlcN6P (glucosamine-6-phosphate [3]) | self-cleavage kobs at 640 uM GlcN6P (glucosamine-6-phosphate [4]) | self-cleavage kobs at 2500 uM GlcN6P (glucosamine-6-phosphate [5]) | self-cleavage kobs at 10000 uM GlcN6P (glucosamine-6-phosphate [6]) | self-cleavage kobs at 40 uM GlcN6P (glucosamine-6-phosphate [7]) |
| --- | --- | --- | --- | --- | --- | --- | --- |
| U54G U56G | 0.016 ± 0.0043 s⁻¹ | 2790 ± 950 µM | 0.000796 ± 0.00017 s⁻¹ | 0.00338 ± 0.00059 s⁻¹ | 0.00688 ± 0.0019 s⁻¹ | 0.013 ± 0.0058 s⁻¹ |  |
| G59C C67G | < 1e-05 s⁻¹ |  |  |  |  |  |  |
| U57A C67A | 0.000119 ± 3.3e-05 s⁻¹ |  |  | 4.64e-05 ± 1.4e-05 s⁻¹ | 4.66e-05 ± 7.6e-06 s⁻¹ | 9.37e-05 ± 1.1e-05 s⁻¹ |  |
| U57A C67U | 0.000139 ± 3.1e-05 s⁻¹ |  |  | 5.03e-05 ± 1.7e-05 s⁻¹ | 5.36e-05 ± 9.6e-06 s⁻¹ | 0.000108 ± 1e-05 s⁻¹ |  |
| C61A | < 1e-05 s⁻¹ |  |  |  |  |  |  |
| C58U C68U | 6.04e-05 ± 7.7e-06 s⁻¹ | 2460 ± 1000 µM |  |  | 2.71e-05 ± 8.5e-06 s⁻¹ | 4.92e-05 ± 7.3e-06 s⁻¹ |  |
| U56G C58G | 0.000173 ± 4.6e-06 s⁻¹ | 1800 ± 110 µM |  | 4.42e-05 ± 1e-05 s⁻¹ | 0.000103 ± 1.4e-05 s⁻¹ | 0.000145 ± 2.1e-05 s⁻¹ |  |
| U55C C67A | 0.000193 ± 6.1e-05 s⁻¹ |  |  | 0.000133 ± 2.3e-05 s⁻¹ | 0.000137 ± 2.4e-05 s⁻¹ | 0.00029 ± 5.7e-05 s⁻¹ |  |
| U55C C67U | 0.000234 ± 1.4e-05 s⁻¹ | 499 ± 120 µM |  | 0.000134 ± 2.5e-05 s⁻¹ | 0.000173 ± 4.2e-05 s⁻¹ | 0.000231 ± 3e-05 s⁻¹ |  |
| U55C C67G | < 1e-05 s⁻¹ |  |  |  |  |  | < 1e-05 s⁻¹ |
| U56C G66U | 0.000242 ± 4e-05 s⁻¹ | 1500 ± 650 µM |  | 8.87e-05 ± 2e-05 s⁻¹ | 0.000133 ± 2e-05 s⁻¹ | 0.000231 ± 3.4e-05 s⁻¹ |  |
| C58A A64G | 0.000405 ± 6.2e-05 s⁻¹ | 1920 ± 510 µM | 3.91e-05 ± 1.1e-05 s⁻¹ | 0.0001 ± 1.5e-05 s⁻¹ | 0.000214 ± 2.8e-05 s⁻¹ | 0.000399 ± 8.1e-05 s⁻¹ |  |
| U55G C58U | 0.00011 ± 7.5e-06 s⁻¹ | 7880 ± 1100 µM |  |  | 2.7e-05 ± 8.5e-06 s⁻¹ | 6.17e-05 ± 7.4e-06 s⁻¹ |  |
| U57A G63A | < 1e-05 s⁻¹ |  | < 1e-05 s⁻¹ |  |  | < 1e-05 s⁻¹ |  |
| U55C U69G | 1.99e-05 ± 1.9e-06 s⁻¹ |  |  |  |  |  |  |
| U55C U69C | 0.00119 ± 0.00046 s⁻¹ |  |  | 6.77e-05 ± 2.8e-05 s⁻¹ | 0.000177 ± 2.6e-05 s⁻¹ | 0.000523 ± 0.00012 s⁻¹ |  |
| U55C U56G | 0.0112 ± 0.0051 s⁻¹ |  | 0.000456 ± 6.4e-05 s⁻¹ | 0.00134 ± 0.00022 s⁻¹ | 0.00329 ± 0.00056 s⁻¹ | 0.0103 ± 0.0016 s⁻¹ | 0.000172 ± 3.6e-05 s⁻¹ |
| U57G C67A | 2.87e-05 ± 6.3e-06 s⁻¹ |  |  |  |  | 2.45e-05 ± 1.2e-05 s⁻¹ |  |
| U57G C67U | 3.05e-05 ± 1e-05 s⁻¹ |  |  |  | 4.91e-05 ± 1.5e-05 s⁻¹ | 2.19e-05 ± 1e-05 s⁻¹ |  |
| U54A U65G C67U | 0.00302 ± 0.00027 s⁻¹ | 3900 ± 500 µM | 0.000109 ± 3.7e-05 s⁻¹ | 0.000434 ± 9.2e-05 s⁻¹ |  | 0.00217 ± 0.00041 s⁻¹ |  |

| Variant | kcat (glucosamine-6-phosphate [1]) | KM (glucosamine-6-phosphate [2]) | self-cleavage kobs at 160 uM GlcN6P (glucosamine-6-phosphate [3]) | self-cleavage kobs at 640 uM GlcN6P (glucosamine-6-phosphate [4]) | self-cleavage kobs at 2500 uM GlcN6P (glucosamine-6-phosphate [5]) | self-cleavage kobs at 10000 uM GlcN6P (glucosamine-6-phosphate [6]) | self-cleavage kobs at 40 uM GlcN6P (glucosamine-6-phosphate [7]) |
| --- | --- | --- | --- | --- | --- | --- | --- |
| C58A C61A C70U | 1.3e-05 ± 1.9e-06 s⁻¹ |  |  |  |  |  |  |
| U57C C58G | 3.57e-05 ± 4.2e-06 s⁻¹ |  |  |  |  | 3.19e-05 ± 1e-05 s⁻¹ |  |
| U55G A64G | 0.0303 ± 0.0073 s⁻¹ | 1980 ± 600 µM | 0.00204 ± 0.00033 s⁻¹ | 0.0075 ± 0.00091 s⁻¹ | 0.0149 ± 0.0036 s⁻¹ | 0.0308 ± 0.0088 s⁻¹ | 0.000723 ± 0.00013 s⁻¹ |
| G59A C67G | 1.27e-05 ± 2.9e-06 s⁻¹ |  |  |  |  |  |  |
| U56A C68G | 7.31e-05 ± 8.9e-06 s⁻¹ |  | 6.33e-05 ± 1.2e-05 s⁻¹ | 0.00011 ± 1.5e-05 s⁻¹ | 6.61e-05 ± 7.6e-06 s⁻¹ | 6.94e-05 ± 7.3e-06 s⁻¹ |  |
| U56A C68A | 4.71e-05 ± 1.1e-05 s⁻¹ |  | 5.43e-05 ± 1e-05 s⁻¹ | 5.74e-05 ± 1e-05 s⁻¹ | 5.61e-05 ± 1e-05 s⁻¹ |  |  |
| U55C C71G | 0.000144 ± 9.8e-06 s⁻¹ | 1810 ± 300 µM |  | 3.46e-05 ± 9.7e-06 s⁻¹ | 8.92e-05 ± 1.3e-05 s⁻¹ | 0.000118 ± 1.9e-05 s⁻¹ |  |
| U55C C71U | 0.00258 ± 5.1e-05 s⁻¹ | 1620 ± 49 µM | 0.000225 ± 3.7e-05 s⁻¹ | 0.000749 ± 0.00015 s⁻¹ | 0.00157 ± 0.00021 s⁻¹ | 0.00222 ± 0.00029 s⁻¹ | 6.36e-05 ± 1e-05 s⁻¹ |
| C58A C61G | 1.62e-05 ± 5.8e-06 s⁻¹ |  |  |  |  |  |  |
| C58A C61A | 1.11e-05 ± 1.1e-06 s⁻¹ |  |  |  |  | < 1e-05 s⁻¹ |  |
| C58A C61U | < 1e-05 s⁻¹ |  |  |  |  |  |  |
| A53U U55A | 0.026 ± 0.012 s⁻¹ |  | 0.000887 ± 0.00017 s⁻¹ | 0.00403 ± 0.00095 s⁻¹ | 0.00891 ± 0.0017 s⁻¹ | 0.0215 ± 0.0042 s⁻¹ | 0.000486 ± 8.9e-05 s⁻¹ |
| G60C G66A | < 1e-05 s⁻¹ |  |  | < 1e-05 s⁻¹ |  |  |  |
| U55C G60A | 1.48e-05 ± 1.8e-06 s⁻¹ |  |  |  |  |  | < 1e-05 s⁻¹ |
| U57A U69C | 0.000113 ± 1.4e-05 s⁻¹ | 1640 ± 640 µM |  |  | 7.81e-05 ± 1.8e-05 s⁻¹ | 9.38e-05 ± 1.8e-05 s⁻¹ |  |
| U57A U69A | 3.14e-05 ± 6.3e-06 s⁻¹ |  |  |  | 3.75e-05 ± 1.1e-05 s⁻¹ |  |  |
| U55A U57A | 0.000112 ± 3.7e-05 s⁻¹ |  |  | 7.83e-05 ± 1.8e-05 s⁻¹ | 8.45e-05 ± 2.7e-05 s⁻¹ |  |  |
| U55G G62U | < 1e-05 s⁻¹ |  | < 1e-05 s⁻¹ |  |  | < 1e-05 s⁻¹ |  |
| U55G U57A | 0.000252 ± 8.2e-06 s⁻¹ | 2520 ± 190 µM |  | 5.17e-05 ± 1e-05 s⁻¹ | 0.000124 ± 1.5e-05 s⁻¹ | 0.000203 ± 2e-05 s⁻¹ |  |
| C58G U65G | < 1e-05 s⁻¹ |  |  |  |  |  |  |
